Here are results for one substance from US20240060046A1.

In the test the target is CD20 on CD20+ human Burkitt's lymphoma cell lines (Ramos, Raji) (human) (UniProt P11836). The experiment in a line: cell-based or functional assay.
UniProt P11836, sequence (P11836 whole entry): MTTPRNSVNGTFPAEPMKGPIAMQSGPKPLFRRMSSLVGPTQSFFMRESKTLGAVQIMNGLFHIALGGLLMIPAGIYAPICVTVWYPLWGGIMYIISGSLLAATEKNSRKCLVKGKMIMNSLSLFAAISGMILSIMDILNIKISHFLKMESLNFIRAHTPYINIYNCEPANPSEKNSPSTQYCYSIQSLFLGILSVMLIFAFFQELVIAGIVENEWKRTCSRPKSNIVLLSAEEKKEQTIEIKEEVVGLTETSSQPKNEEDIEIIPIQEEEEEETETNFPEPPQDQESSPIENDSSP

Turning to “Rituximab (Mabthera or Rituxan) (antibody)”, the Viable Raji cells (%), long-term ADCC, AB-101 + RTX, 24 hrs (mean of 9 AB-101 batches) was found to be 23.9%; the Viable Raji cells (%), long-term ADCC, AB-101 + RTX, 48 hrs (mean of 9 AB-101 batches) worked out at 11.7%; the Viable Raji cells (%), long-term ADCC, AB-101 + RTX, 72 hrs (mean of 9 AB-101 batches) was found to be 10.1%; the Viable Ramos cells (%), long-term ADCC, AB-101 + RTX, 24 hrs (mean of 9 AB-101 batches) came out at 47.6%. Moreover, the Viable Ramos cells (%), long-term ADCC, AB-101 + RTX, 48 hrs (mean of 9 AB-101 batches) came out at 28.1%; the Viable Ramos cells (%), long-term ADCC, AB-101 + RTX, 72 hrs (mean of 9 AB-101 batches) amounted to 19%; the lysis of Raji target cells at the end of 72 hour co-culture, AB-101 combined with rituximab, E:T 1:1 worked out at 90%; the lysis of Ramos target cells at the end of 72 hrs co-culture, AB-101 combined with rituximab, E:T 1:1 was found to be 80%.
